From patent publication US20110268740A1
Substitutions are numbered along the chain they refer to.

How the values were obtained:
[1] = target: M2e-VN (Influenza A virus A/VN/1203/04 (H5N1)); experiment: ELISA, apparent affinity, purified scFv-msFcγ2c on immobilised M2e-VN

B1: scFv-D005-msFcγ2c (Fc fusion)
chain: DADPAQAAELVMTQSPDSLAVSLGERATINCKSSQSVLYTSNNKNYLGWYQQKPGQPPNLLIYWASTRESGVPDRFSGSGSGTDFTLTINSVQAEDVAVYYCQQYFMTPITFGQGTRLEIKGGSSRSSSSGGGGSGGGGEVQLVESGGALVQPGRSLRLSCRTSGLNFGDYPINWVRQAPGKGLEWVGFIKSKSYGVTTEFAASVEGRFTISRDDSRGIAYLQMNSLKTEDTAVYYCTSSSGFLYYFDYWGQGTLVTVSSASTKGPSVTSGQAGRKLEPRVPITQNPCPPLKECPPCAAPDLLGGPSVFIFPPKIKDVLMISLSPMVTCVVVDVSEDDPDVQISWFVNNVEVHTAQTQTHREDYNSTLRVVSALPIQHQDWMSGKEFKCKVNNRALPSPIEKTISKPRGPVRAPQVYVLPPPAEEMTKKEFSLTCMITGFLPAEIAVDWTSNGRTEQNYKNTATVLDSDGSYFMYSKLRVQKSTWERGSLFACSVVHEGLHNHLTTKTISRSLGK
EC50 [1]: 51.5 pM

B2: scFv-E040-msFcγ2c (Fc fusion)
chain: B1 chain with T40S, K44E, G48A, N59K, V144L
EC50 [1]: 46.4 pM

B3: scFv-F052-msFcγ2c (Fc fusion)
chain: DADPAQAAERVMTQSPDALAVSLGERATINCKSSQSLLYSSNNKNYLAWYQKKPGQPPKLLIYWASTRESGVPDRFSGSGSGTEFTLTINSVQAEDVAVYYCQQYFMTPITFGQGTKLEIKGGSSRSSSSGGGGSGGGGQVQLQESGGALVQPGRSLRLSCRTSGLNFGDYPINWVRQAPGKGLEWVGFIKSKSYGVTTEFAASVEGRFTISRDDSRGIAYLQMNSLKTEDTAVYYCTSSSGFLYYFDYWGQGTLVTVSSASTKGPSVTSGQAGRKLEPRVPITQNPCPPLKECPPCAAPDLLGGPSVFIFPPKIKDVLMISLSPMVTCVVVDVSEDDPDVQISWFVNNVEVHTAQTQTHREDYNSTLRVVSALPIQHQDWMSGKEFKCKVNNRALPSPIEKTISKPRGPVRAPQVYVLPPPAEEMTKKEFSLTCMITGFLPAEIAVDWTSNGRTEQNYKNTATVLDSDGSYFMYSKLRVQKSTWERGSLFACSVVHEGLHNHLTTKTISRSLGK
EC50 [1]: 45.9 pM

B4: M2e-VN (peptide)
peptide: SLLTEVETPTRNEWECRCSDSSD
modifications: not checked
EC50 (scFv-D005-msFcγ2c): 32.5 µM
EC50 (scFv-E040-msFcγ2c): 43.2 µM
EC50 (scFv-F052-msFcγ2c): 50.8 µM
